These results are taken from PMC3110666 (Nature cell biology, 2011).

This data set deals with the molecule itself. As to the kind of experiment: cross-linking.

B1: G6PD of MEF cells (enzyme, mouse (endogenous in MEF), UniProt Q00612 1-515, looked up)
chain: MAEQVALSRTQVCGILREELYQGDAFHQADTHIFIIMGASGDLAKKKIYPTIWWLFRDGLLPEDTFIVGYARSRLTVDDIRKQSEPFFKATPEERPKLEEFFARNSYVAGQYDDAASYKHLNSHMNALHQGMQANRLFYLALPPTVYEAVTKNIQETCMSQTGWNRIIVEKPFGRDLQSSNQLSNHISSLFREDQIYRIDHYLGKEMVQNLMVLRFANRIFGPIWNRDNIACVILTFKEPFGTEGRGGYFDEFGIIRDVMQNHLLQMLCLVAMEKPATTGSDDVRDEKVKVLKCISEVETDNVVLGQYVGNPNGEGEAANGYLDDPTVPHGSTTATFAAAVLYVENERWDGVPFILRCGKALNERKAEVRLQFRDVAGDIFHQQCKRNELVIRVQPNEAVYTKMMTKKPGMFFNPEESELDLTYGNRYKNVKLPDAYERLILDVFCGSQMHFVRSDELREAWRIFTPLLHKIDREKPQPIPYVYGSRGPTEADELMKRVGFQYEGTYKWVNPHKL
By stoichiometry N is commonly meant a count of units in the complex or per binding partner. For the protein B1, the “stoichiometry N” value came out at 2.
